Source: patent publication US20190262327A1, “COMBINATION OF A BACE INHIBITOR AND AN ANTIBODY OR ANTIGEN-BINDING FRAGMENT FOR THE TREATMENT OF A DISORDER ASSOCIATED WITH THE ACCUMULATION OF AMYLOID BETA” (ASTRAZENECA AB, priority 2016, published 2019)
“Also recorded” adds a separate entry of the source.

Assays:
[1] = system: Amyloid plaques; test: In vitro immunohistochemistry on Tg2576 mouse brain sections
From the text: (§1) Briefly, the lead antibodies were screened on human Alzheimer's Disease brain sections and Tg2576 mouse brain sections to identify anti-Amyloid beta 1-42 antibodies that bound to Amyloid plaques in vitro.
(§2) In these experiments, human brain tissue was isolated from the frontal cortex of two individuals with severe Alzheimer's Disease (ApoE genotype 3/3, Braak stage 6 and ApoE genotype 4/3, Braak stage 5). As a control, equivalent tissue was isolated from one non-dementia individual (ApoE genotype 3/3, Braak stage 1). Mouse brain tissue was isolated from Tg2576 mice at an age of 15 months (2 mice) and 22 months (2 mice). Antibodies were tested at concentrations of 2, 5, 10 and 20 ug ml^−1.

[2] = molecular target: T1, Aβ1-42 aggregate (Homo sapiens, UniProt P05067); test: Western blot of Abeta 42 aggregate preparation (PICUP and non PICUP); assay type: binding; details: primary antibody 2 ug/ml; non PICUP and PICUP Aβ42 aggregate
T1 construct: non-cross-linked A[…] 1-42 aggregate
T1 sequence (P05067 672-713 limits assumed): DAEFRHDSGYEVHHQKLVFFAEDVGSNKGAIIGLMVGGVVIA
Procedure: To cross-link the A042 oligomers before SDS-PAGE, PICUP (photo-induced cross-linking of peptides) was carried out as follows. A 1 mM solution of Ru(Bpy) was created by adding 2 μl of stock (at 10 mM) to 18 μl of 1×PBS. In addition, a 20 mM solution of ammonium persulphate (APS) was created by adding […] of stock (at 200 mM) to 18 μl of 1×PBS. Unused stock was immediately snap-frozen on dry ice and returned to the −80° C. freezer. In the dark room, 5 μl of Ru(Bpy) was added to 80 μl of aggregate (neat 10 uM sample), followed by 5 μl of APS. Samples were irradiated with a lamp in the dark room for 10 secs. 30 uls of (4×) LDS Sample buffer was added immediately.
SDS-PAGE was then performed on cross-linked (PICUP) and non-cross-linked A[…] 1-42 aggregate. The solutions were incubated in a hot block at 70° C. for 10 minutes. Meanwhile, a marker was created by combining 5 μl of Magic Mark XP Western Protein Standard, 5 μl of Novex Sharp Pre-stained Protein Standard. After the ten-minute incubation, the samples plus marker were loaded onto a NuPAGE Novex 4-12% Bis-Tris Gels (1.0 mm, 15 well, 15 μl per well) with MES running buffer. The gels were run at 200 V for 35 minutes. […]
During the final washes, the chemi-luminescence SuperSignal West Dura substrate (Thermo Scientific; 34075) were allowed to warm to room temperature. […]

[3] = system: Amyloid plaques; test: In vitro immunohistochemistry on human Alzheimer's Disease brain sections
From the text: as §1, §2

[4] = system: Amyloid beta plaques; test: In vivo binding to Amyloid beta plaques in aged Tg2576 mice (immunohistochemistry); set-up: species or system mouse; details: 168 hours after single i.v. dose of 10 or 30 mg/kg
Procedure: Abet0380-GL IgG1-TM was tested for its ability to bind to Amyloid beta plaques in aged Tg2576 mice after a single peripheral dose. Animal experimentations were performed in accordance with relevant guidelines and regulations provided by the Swedish Board of Agriculture. The ethical permission was provided by an ethical board specialized in animal experimentations: the Stockholm Sodra Animal Research Ethical Board. Seventeen-month old female Tg2576 mice (n=5) received a single dose of vehicle, a positive control antibody at 30 mg/kg or the Abet0380-GL IgG1-TM antibody at 10 or 30 mg/kg by intravenous injection with a dosing vehicle of 25 mM Histidine, 7% Sucrose, 0.02% p80 surfactant, pH 6.0 at 5 mL/kg. At 168 hours after dose, animals were deeply anaesthetized and perfused with room temperature PBS followed by cold (4° C.) phosphate buffered 4% paraformaldehyde (PFA). Animals were then sacrificed by decapitation and brains were dissected and immersions fix in PFA at 4° C. for 72 hours. The fixative was exchanged to PBS containing 0.1% sodium azide and tissues were stored at 4° C. until further processed. […]
Scoring of the staining was carried out in a blinded fashion under 10× optical magnification. […] The intensity of plaque labelling was scored according to a relative intensity scale from 0 (no staining of plaques) up to 4 (intense decoration of plaques).

B1: Abet0380-GL IgG1-TM: germlined Abet0380; VH SEQ ID NO: 524, VL SEQ ID NO: 533; human IgG1 triple mutant format (antibody, listed as Homo sapiens, V domains shown)
VH: EVQLLESGGGLVQPGGSLRLSCAASMGNFNYQTMWWVRQAPGKGLEWVSVIGKTNENIAYADSVKGRFTISRDNSKNTLYLQMNSLRAEDTAVYYCAREWMDHSRPYYYYGMDVWGQGTLVTVSS
VL: SYELTQPPSVSVSPGQTASITCSGHNLEDKFASWYQQKPGQSPVLVIYRDDKRPSGIPERFSASNSGHTATLTISGTQAMDEADYYCSSQDTVTRVFGGGTKLTVL
modifications: human IgG1 triple mutant constant region; /note=“Abet0380-GL”
notes: germlined Abet0380; human IgG1 triple mutant format
core plaques (CP) staining score ([1]; Tg2576 brain sections): 4 | plaque recognition score ([1]; Tg2576 mouse brain sections, 22 month old mice, 20 μg/ml): 4 | Abeta42 recognition profile by Western blot [2]: specifically recognises Aβ1-42 monomer and low n oligomer species up to and including pentamer | plaque recognition score ([3]; human AD brain section, ApoE genotype 3/3, Braak stage 6, 10 μg/ml): 3 | core plaques (CP) staining score ([3]; human AD brain sections): 3 | staining of diffuse plaques (DP) and cerebral amyloid angiopathy (CAA) plaques ([3]; relative to core plaques, Tg2576 and human AD brain sections): to a lesser extent | in vivo decoration of Amyloid beta plaques or CAA [4]: did not decorate; also recorded: does not show any in vivo plaque decoration
